Values belong to the molecule of their own block, whether it stands above or below them.
What was measured:
ARA54-ARA54 interactions = molecular target: T1, ARA54-ARA54 interactions (Homo sapiens, UniProt Q9UBS8); experiment: Mammalian two-hybrid assay of ARA54-ARA54 interaction in DU145 cells; assay type: cell-based
T1 construct: fl-ARA54, full-length ARA54; expressed in transfected cells; host or cells: DU145
T1 sequence (Q9UBS8 1-474): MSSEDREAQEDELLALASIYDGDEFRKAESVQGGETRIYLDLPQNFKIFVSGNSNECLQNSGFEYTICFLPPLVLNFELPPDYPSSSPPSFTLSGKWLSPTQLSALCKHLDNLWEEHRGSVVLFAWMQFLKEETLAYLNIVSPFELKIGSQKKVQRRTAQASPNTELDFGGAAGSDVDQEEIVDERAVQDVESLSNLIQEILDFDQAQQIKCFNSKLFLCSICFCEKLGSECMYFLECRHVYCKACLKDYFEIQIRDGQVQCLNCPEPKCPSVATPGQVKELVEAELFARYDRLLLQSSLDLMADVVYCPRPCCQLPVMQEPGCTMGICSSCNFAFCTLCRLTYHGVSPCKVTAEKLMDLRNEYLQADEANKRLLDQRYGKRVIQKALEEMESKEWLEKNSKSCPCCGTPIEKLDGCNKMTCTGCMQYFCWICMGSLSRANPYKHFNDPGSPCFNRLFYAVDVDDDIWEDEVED
Experimental: 15. […] DU145 cells were transfected with 2.5 μg of GAL4-hybrid expression plasmid (pGAL0-AR (A) or pCMX-GAL4 DBD-fl-ARA54 (B)), 2.5 μg of VP16-hybrid expression plasmid (pCMX-VP16-fl-ARA54), and 2.5 μg of pG5-CAT, with or without 2.5 μg of pSG5-C′-ARA54 (C′) or pSG5-mt-ARA54 (mt). pCMX-VP16-C′-ARA54 and pCMX-VP16-mt-ARA54 were also cotransfected to test the interactions with AR (A) and fl-ARA54 (B). The total amount of DNA was adjusted to 11.0 μg with pSG5 and/or pVP16 for each transfection. The CAT activity was determined and each CAT activity is presented relative to that of lane 4 in each panel (black bars; set as 100%). Values represent the mean±SD of at least three determinations.
397. DU145 cells were transiently cotransfected with a GAL4-hybrid expression plasmid, a VP16-hybrid expression plasmid, the reporter plasmid pG5-CAT, and the pCMV-O-gal internal control plasmid. Transfections and CAT assays were performed as described above.

GR = molecular target: T2, GR (Homo sapiens, UniProt P04150); experiment: GR transactivation reporter gene assay (Example 2); assay type: cell-based; parameters: expressed in transfected cells; host or cells: PC-3
T2 sequence (P04150 1-777): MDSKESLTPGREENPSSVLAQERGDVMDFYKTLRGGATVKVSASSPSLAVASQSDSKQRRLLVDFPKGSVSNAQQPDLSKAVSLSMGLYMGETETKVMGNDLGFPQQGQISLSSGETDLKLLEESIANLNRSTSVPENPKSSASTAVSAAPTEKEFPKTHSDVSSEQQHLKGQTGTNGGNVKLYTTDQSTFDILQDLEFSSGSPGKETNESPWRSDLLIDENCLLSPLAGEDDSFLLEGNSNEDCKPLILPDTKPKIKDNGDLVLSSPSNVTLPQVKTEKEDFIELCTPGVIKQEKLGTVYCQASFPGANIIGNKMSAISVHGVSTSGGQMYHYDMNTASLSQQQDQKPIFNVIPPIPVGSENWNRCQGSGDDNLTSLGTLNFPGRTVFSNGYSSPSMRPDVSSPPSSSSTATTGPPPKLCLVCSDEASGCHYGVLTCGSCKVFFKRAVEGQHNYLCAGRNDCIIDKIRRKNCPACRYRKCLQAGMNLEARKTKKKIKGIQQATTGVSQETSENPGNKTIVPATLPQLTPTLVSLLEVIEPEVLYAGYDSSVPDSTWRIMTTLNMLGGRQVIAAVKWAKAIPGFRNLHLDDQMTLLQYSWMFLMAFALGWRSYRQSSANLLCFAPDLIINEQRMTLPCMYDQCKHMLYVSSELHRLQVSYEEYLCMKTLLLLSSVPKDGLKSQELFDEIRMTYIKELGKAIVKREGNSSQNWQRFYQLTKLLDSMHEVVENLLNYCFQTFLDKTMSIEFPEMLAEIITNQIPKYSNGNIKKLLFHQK
Experimental: 12. […] PC-3 (A) or DU145 (B) cells were transfected with MMTV-CAT (2.5 μg), steroid receptor expression plasmid (AR, PR, or GR; 1.0 μg for PC-3 and 0.75 μg for DU145), and pSG5-C′-ARA54 (C′) or pSG5-mt-ARA54 (mt) (8.0 μg for PC-3 and 6.75 μg for DU145), with (for DU145) or without (for PC-3) pSG5-fl-ARA54 (2.25 μg). The total amount of DNA was adjusted to 12.5-13.25 μg with pSG5 for each transfection. […] The CAT activity is presented relative to that of vector alone with cognate ligand in each panel (black bars; set as 100%). Values represent the mean±SD of at least three determinations.
394. The human prostate cancer cell lines, LNCaP, PC-3, and DU145, were maintained in Dulbecco's minimum essential medium (DMEM) containing 5% fetal calf serum (FCS). Transfections using the calcium phosphate precipitation method and chloramphenicol acetyltransferase (CAT) and luciferase (Luc) assays were performed as previously described (Miyamoto et al. (1998) Proc. Natl. Acad. Sci. U.S.A. 95, 7379-7384; Yeh et al. (1999) Endocrine 11, 195-202; Miyamoto et al. (1998) Proc. Natl. Acad. Sci. U.S.A. 95, 11083-11088). Briefly, 1-4×10^5 cells were plated on 35-mm or 60-mm dishes 24 h before adding the precipitation mix containing a CAT or Luc reporter gene and a β-galactosidase expression plasmid (pCMV-β-gal) as an internal control for normalization of transfection efficiency. The medium was changed to phenol-red-free DMEM with 5% charcoal-stripped FCS 1 h before transfection. In each experiment, the total amount of transfected DNA per dish was maintained as a constant by addition of empty expression vector (pSG5 or pVP16, as appropriate). […] The cells were then harvested and whole cell extracts were used for CAT or Luc assay. The CAT activity was quantitated with a PhosphorImager (Molecular Dynamics). The Luc assay was determined using a Dual-Luciferase Reporter Assay System (Promega) and luminometer.

AR = settings: prostate cancer cells; androgens or HF; cited from earlier work

CAT activity of GAL4-fl-ARA54 / VP16-fl-ARA54 interaction (ARA54-ARA54 interactions): returned to the basal levels
effect on fl-ARA54-induced GR transactivation (GR; DU145 cells): little effect
effect on GR transactivation (GR; PC-3 cell line): only marginally repressed
B1: C′-ARA54: C-terminal region (amino acids 361-474) of ARA54 (protein)
chain: RNEYLQADEANKRLLDQRYGKRVIQKALEEMESKEWLEKNSKSCPCCGTPIEKLDGCNKMTCTGCMQYFCWICMGSLSRANPYKHFNDPGSPCFNRLFYAVDVDDDIWEDEVED
modifications: Homo sapien
notes: C-terminal region (amino acids 361-474) of ARA54

induction of GR transcription activity (GR; DU145 cells, cotransfected with GR): 1.6 fold
B2: ARA54: 54 kDa protein that interacts with AR in an androgen-dependent manner; AR coactivator (protein)
chain: T1 sequence (Q9UBS8 1-474)
enhancement of transactivation of wild-type AR and LNCaP mutant AR (AR): 2-6 fold

— patent US20060270591A1, “Androgen receptor coregulators” (priority 2002, published 2006)
